This is an account of results in the Human Domainome abundance scans (Beltran et al. 2025).

± gives the uncertainty stated by the source.

B1: Ankyrin-2, residues 3571 to 3650; numbered along this chain, Q01484 (parent)
chain: ERLAYIADHLGFSWTELARELDFTEEQIHQIRIENPNSLQDQSHALLKYWLERDGKHATDTNLVECLTKINRMDIVHLME

In this data set the parent is B1. In words: abundance fitness (aPCA) (normalised: wild type 0, dead -1); higher = more abundant; growth selection in yeast, the domain comes from the species named. The conditions noted are these: Homo sapiens.
In the case of ERLAYIADHLGFSWTELARELDITEEQIHQIRIENPNSLQDQSHALLKYWLERDGKHATDTNLVECLTKINRMDIVHLME [F23I], the abundance fitness was 0.047 ± 0.18.
As for ERLAYIADHLGFSWTELARELDRTEEQIHQIRIENPNSLQDQSHALLKYWLERDGKHATDTNLVECLTKINRMDIVHLME [F23R], the abundance fitness is -1.05 ± 0.17.
As for ERLAYIADHLGFSWTELARELDLTEEQIHQIRIENPNSLQDQSHALLKYWLERDGKHATDTNLVECLTKINRMDIVHLME [F23L], the figure is -0.066 ± 0.076; as for ERLAYIADHLGFSWTELARELDMTEEQIHQIRIENPNSLQDQSHALLKYWLERDGKHATDTNLVECLTKINRMDIVHLME [F23M], -0.021 ± 0.15; as for ERLAYIADHLGFSWTELARELDHTEEQIHQIRIENPNSLQDQSHALLKYWLERDGKHATDTNLVECLTKINRMDIVHLME [F23H], -0.663 ± 0.078.
For ERLAYIADHLGFSWTELARELDATEEQIHQIRIENPNSLQDQSHALLKYWLERDGKHATDTNLVECLTKINRMDIVHLME [F23A], the abundance fitness was -0.177 ± 0.092.
As for ERLAYIADHLGFSWTELAREMDFTEEQIHQIRIENPNSLQDQSHALLKYWLERDGKHATDTNLVECLTKINRMDIVHLME [L21M], the abundance fitness was -0.107 ± 0.088.
Consider ERLAYIADHLGFSWTELAREWDFTEEQIHQIRIENPNSLQDQSHALLKYWLERDGKHATDTNLVECLTKINRMDIVHLME [L21W], for which the abundance fitness was -0.093 ± 0.08.
As for ERLAYIADHLGFSWTELARETDFTEEQIHQIRIENPNSLQDQSHALLKYWLERDGKHATDTNLVECLTKINRMDIVHLME [L21T], the figure is -0.412 ± 0.076; as for ERLAYIADHLGFSWTELARESDFTEEQIHQIRIENPNSLQDQSHALLKYWLERDGKHATDTNLVECLTKINRMDIVHLME [L21S], -0.33 ± 0.069; as for ERLAYIADHLGFSWTELARECDFTEEQIHQIRIENPNSLQDQSHALLKYWLERDGKHATDTNLVECLTKINRMDIVHLME [L21C], -0.488 ± 0.23.
Consider ERLAYIADHLGFSWTELAREIDFTEEQIHQIRIENPNSLQDQSHALLKYWLERDGKHATDTNLVECLTKINRMDIVHLME [L21I], for which the abundance fitness is -0.268 ± 0.17.
As for ERLAYIADHLGFSWTELAREKDFTEEQIHQIRIENPNSLQDQSHALLKYWLERDGKHATDTNLVECLTKINRMDIVHLME [L21K], the figure is -0.32 ± 0.098; as for ERLAYIADHLGFSWTELAREADFTEEQIHQIRIENPNSLQDQSHALLKYWLERDGKHATDTNLVECLTKINRMDIVHLME [L21A], -0.086 ± 0.061.
The same measure for ERLAYIADHLGFSWTELAREQDFTEEQIHQIRIENPNSLQDQSHALLKYWLERDGKHATDTNLVECLTKINRMDIVHLME [L21Q]: -0.24 ± 0.095; for ERLAYIADHLGFSWTELAREEDFTEEQIHQIRIENPNSLQDQSHALLKYWLERDGKHATDTNLVECLTKINRMDIVHLME [L21E]: -0.849 ± 0.14.
Regarding ERLAYIADHLGFSWTELAREFDFTEEQIHQIRIENPNSLQDQSHALLKYWLERDGKHATDTNLVECLTKINRMDIVHLME [L21F], the abundance fitness was 0.069 ± 0.17.
Turning to ERLAYIADHLGFSWTELAREVDFTEEQIHQIRIENPNSLQDQSHALLKYWLERDGKHATDTNLVECLTKINRMDIVHLME [L21V], the abundance fitness was -0.225 ± 0.077.
Regarding ERLAYIADHLGFSWTELAREGDFTEEQIHQIRIENPNSLQDQSHALLKYWLERDGKHATDTNLVECLTKINRMDIVHLME [L21G], the abundance fitness was -0.072 ± 0.056.
As to ERLAYIADHLGFSWTELARENDFTEEQIHQIRIENPNSLQDQSHALLKYWLERDGKHATDTNLVECLTKINRMDIVHLME [L21N], the abundance fitness is -0.149 ± 0.45.
The same measure for ERLAYIADHLGFSWTELARYLDFTEEQIHQIRIENPNSLQDQSHALLKYWLERDGKHATDTNLVECLTKINRMDIVHLME [E20Y]: -0.1 ± 0.14; for ERLAYIADHLGFSWTELARDLDFTEEQIHQIRIENPNSLQDQSHALLKYWLERDGKHATDTNLVECLTKINRMDIVHLME [E20D]: 0.018 ± 0.24; for ERLAYIADHLGFSWTELARGLDFTEEQIHQIRIENPNSLQDQSHALLKYWLERDGKHATDTNLVECLTKINRMDIVHLME [E20G]: -0.095 ± 0.07.
The same measure for ERLAYIADHLGFSWTELARMLDFTEEQIHQIRIENPNSLQDQSHALLKYWLERDGKHATDTNLVECLTKINRMDIVHLME [E20M]: 0.089 ± 0.086.
The same measure for ERLAYIADHLGFSWTELARQLDFTEEQIHQIRIENPNSLQDQSHALLKYWLERDGKHATDTNLVECLTKINRMDIVHLME [E20Q]: -0.169 ± 0.15.
Regarding ERLAYIADHLGFSWTELARSLDFTEEQIHQIRIENPNSLQDQSHALLKYWLERDGKHATDTNLVECLTKINRMDIVHLME [E20S], the abundance fitness was -0.076 ± 0.097.
The same measure for ERLAYIADHLGFSWTELARVLDFTEEQIHQIRIENPNSLQDQSHALLKYWLERDGKHATDTNLVECLTKINRMDIVHLME [E20V]: -0.003 ± 0.066; for ERLAYIADHLGFSWTELARLLDFTEEQIHQIRIENPNSLQDQSHALLKYWLERDGKHATDTNLVECLTKINRMDIVHLME [E20L]: -0.083 ± 0.059.
ERLAYIADHLGFSWTELARFLDFTEEQIHQIRIENPNSLQDQSHALLKYWLERDGKHATDTNLVECLTKINRMDIVHLME [E20F]: the abundance fitness is -0.098 ± 0.22.
Regarding ERLAYIADHLGFSWTELARWLDFTEEQIHQIRIENPNSLQDQSHALLKYWLERDGKHATDTNLVECLTKINRMDIVHLME [E20W], the abundance fitness was -0.156 ± 0.093.
The same measure for ERLAYIADHLGFSWTELARALDFTEEQIHQIRIENPNSLQDQSHALLKYWLERDGKHATDTNLVECLTKINRMDIVHLME [E20A]: -0.118 ± 0.11; for ERLAYIADHLGFSWTELARTLDFTEEQIHQIRIENPNSLQDQSHALLKYWLERDGKHATDTNLVECLTKINRMDIVHLME [E20T]: -0.025 ± 0.072; for ERLAYIADHLGFSWTELARPLDFTEEQIHQIRIENPNSLQDQSHALLKYWLERDGKHATDTNLVECLTKINRMDIVHLME [E20P]: -0.814 ± 0.093.
The same measure for ERLAYIADHLGFSWTELARCLDFTEEQIHQIRIENPNSLQDQSHALLKYWLERDGKHATDTNLVECLTKINRMDIVHLME [E20C]: -0.156 ± 0.25; for ERLAYIADHLGFSWTELARRLDFTEEQIHQIRIENPNSLQDQSHALLKYWLERDGKHATDTNLVECLTKINRMDIVHLME [E20R]: -0.057 ± 0.056.
